Data set [1] has as its target T1, PeAAO1 (Pleurotus eryngii, UniProt O94219, K583E/Q584R).
T1 construct: gene aao; secreted glycoprotein from P. pastoris X-33 (codon-optimised gene in pPICZA); signal peptide removed; theoretical 61 kDa, about 100 kDa on SDS-PAGE, 70 kDa deglycosylated; only mutants expressed (ER, NER, AER)
In words: flavin absorption spectrum; FAD released on heat denaturation. In kind it is binding. The note with it: non-covalently bound; absorbance maxima 463 and 383 nm.

Data set [2] has as its target T2, PeAAO1 (Pleurotus eryngii, UniProt O94219, D361N/K583E/Q584R).
T2 construct: gene aao; secreted glycoprotein from P. pastoris X-33 (codon-optimised gene in pPICZA); signal peptide removed; theoretical 61 kDa, about 100 kDa on SDS-PAGE, 70 kDa deglycosylated; only mutants expressed (ER, NER, AER)
The data set is described as above. It is filed as binding. The settings on record: non-covalently bound; absorbance maxima 463 and 383 nm.

Data set [3] concerns the target T3, PeAAO1 (Pleurotus eryngii, UniProt O94219, V367A/K583E/Q584R).
T3 construct: gene aao; secreted glycoprotein from P. pastoris X-33 (codon-optimised gene in pPICZA); signal peptide removed; theoretical 61 kDa, about 100 kDa on SDS-PAGE, 70 kDa deglycosylated; only mutants expressed (ER, NER, AER)
The data set is described as above. In kind it is binding. The note with it: non-covalently bound; absorbance maxima 463 and 383 nm.

Substrate in the data set “purified protein”: COc1ccc(CO)cc1OC
As to the kind of experiment: purified protein. It is filed as biochemical, Pleurotus eryngii. The note with it: 100 mM sodium phosphate pH 6, 25 °C, O2 as co-substrate, glycosylated enzyme.

Turning to `Cc1cc2nc3c(=O)[nH]c(=O)nc-3n(C[C@H](O)[C@H](O)[C@H](O)COP(=O)(O)OP(=O)(O)OC[C@H]3O[C@@H](n4cnc5c(N)ncnc54)[C@H](O)[C@@H]3O)c2cc1C` [FAD], the “flavin absorption spectrum; FAD released on heat denaturation” value at PeAAO1 [1], on PeAAO1 [2] and on PeAAO1 [3] was “calculated based on absorbance of the released FAD after heat precipitation of the apoprotein” each time.

B1: PeAAO1 (Pleurotus eryngii; K583E/Q584R) (protein)
chain: ADFDYVVVGAGNAGNVVAARLTEDPDVSVLVLEAGVSDENVLGAEAPLLAPGLVPNSIFDWNYTTTAQAGYNGRSIAYPRGRMLGGSSSVHYMVMMRGSTEDFDRYAAVTGDEGWNWDNIQQFVRKNEMVVPPADNHNTSGEFIPAVHGTNGSVSISLPGFPTPLDDRVLATTQEQSEEFFFNPDMGTGHPLGISWSIASVGNGQRSSSSTAYLRPAQSRPNLSVLINAQVTKLVNSGTTNGLPAFRCVEYAEQEGAPTTTVCAKKEVVLSAGSVGTPILLQLSGIGDENDLSSVGIDTIVNNPSVGRNLSDHLLLPAAFFVNSNQTFDNIFRDSSEFNVDLDQWTNTRTGPLTALIANHLAWLRLPSNSSIFQTFPDPAAGPNSAHWETIFSNQWFHPAIPRPDTGSFMSVTNALISPVARGDIKLATSNPFDKPLINPQYLSTEFDIFTMIQAVKSNLRFLSGQAWADFVIRPFDPRLRDPTDDAAIESYIRDNANTIFHPVGTASMSPRGASWGVVDPDLKVKGVDGLRIVDGSILPFAPNAHTQGPIYLVGERGADLIKADQ
notes: secreted glycoprotein from P. pastoris X-33 (codon-optimised gene in pPICZA); signal peptide removed; theoretical 61 kDa, about 100 kDa on SDS-PAGE, 70 kDa deglycosylated; only mutants expressed (ER, NER, AER)
As a reminder, the Km is the concentration of substrate that gives half-maximal velocity. Broadly, the kcat is the number of substrate molecules converted per active site and unit of time at saturation. A word on the kcat/Km: it is the second-order rate constant that governs catalysis at low substrate concentration. Take B1: in “purified protein”, the Km worked out at 549.0 ± 12.6 µM, the kcat stood at 54.9 ± 0.02 s⁻¹ and the kcat/Km was found to be 100000 M⁻¹ s⁻¹.

B2: PeAAO1 (Pleurotus eryngii; K583E/Q584R/V367A) (protein)
chain: ADFDYVVVGAGNAGNVVAARLTEDPDVSVLVLEAGVSDENVLGAEAPLLAPGLVPNSIFDWNYTTTAQAGYNGRSIAYPRGRMLGGSSSVHYMVMMRGSTEDFDRYAAVTGDEGWNWDNIQQFVRKNEMVVPPADNHNTSGEFIPAVHGTNGSVSISLPGFPTPLDDRVLATTQEQSEEFFFNPDMGTGHPLGISWSIASVGNGQRSSSSTAYLRPAQSRPNLSVLINAQVTKLVNSGTTNGLPAFRCVEYAEQEGAPTTTVCAKKEVVLSAGSVGTPILLQLSGIGDENDLSSVGIDTIVNNPSVGRNLSDHLLLPAAFFVNSNQTFDNIFRDSSEFNADLDQWTNTRTGPLTALIANHLAWLRLPSNSSIFQTFPDPAAGPNSAHWETIFSNQWFHPAIPRPDTGSFMSVTNALISPVARGDIKLATSNPFDKPLINPQYLSTEFDIFTMIQAVKSNLRFLSGQAWADFVIRPFDPRLRDPTDDAAIESYIRDNANTIFHPVGTASMSPRGASWGVVDPDLKVKGVDGLRIVDGSILPFAPNAHTQGPIYLVGERGADLIKADQ
notes: as for B1
In the case of B2, in the data set “purified protein”, the Km is given as 541.9 ± 6.4 µM, the kcat came out at 58.5 ± 0.03 s⁻¹ and the kcat/Km was found to be 108000 M⁻¹ s⁻¹.

B3: PeAAO1 (Pleurotus eryngii; D361N/K583E/Q584R) (protein)
chain: ADFDYVVVGAGNAGNVVAARLTEDPDVSVLVLEAGVSDENVLGAEAPLLAPGLVPNSIFDWNYTTTAQAGYNGRSIAYPRGRMLGGSSSVHYMVMMRGSTEDFDRYAAVTGDEGWNWDNIQQFVRKNEMVVPPADNHNTSGEFIPAVHGTNGSVSISLPGFPTPLDDRVLATTQEQSEEFFFNPDMGTGHPLGISWSIASVGNGQRSSSSTAYLRPAQSRPNLSVLINAQVTKLVNSGTTNGLPAFRCVEYAEQEGAPTTTVCAKKEVVLSAGSVGTPILLQLSGIGDENDLSSVGIDTIVNNPSVGRNLSDHLLLPAAFFVNSNQTFDNIFRNSSEFNVDLDQWTNTRTGPLTALIANHLAWLRLPSNSSIFQTFPDPAAGPNSAHWETIFSNQWFHPAIPRPDTGSFMSVTNALISPVARGDIKLATSNPFDKPLINPQYLSTEFDIFTMIQAVKSNLRFLSGQAWADFVIRPFDPRLRDPTDDAAIESYIRDNANTIFHPVGTASMSPRGASWGVVDPDLKVKGVDGLRIVDGSILPFAPNAHTQGPIYLVGERGADLIKADQ
notes: as for B1
For the molecule B3, in the data set “purified protein”, the Km was 546.7 ± 5.8 µM, the kcat was 68.2 ± 0.05 s⁻¹ and the kcat/Km stood at 125000 M⁻¹ s⁻¹.

The values above are taken from PMC8502153, “Two adjacent C-terminal mutations enable expression of aryl-alcohol oxidase from Pleurotus eryngii in Pichia pastoris” (Applied Microbiology and Biotechnology, 2021).
